Where a chain is given by its changes, count along the chain named. Values joined by “and” are separate entries in the source; they are usually repeats but may differ in a detail not shown here. Equal values may be shown once.
B1: anti-TMEM106B antibody TM-42 (antibody, V domains shown)
VH: QVQLQQSGAELAKPGASVKLSCKASGYTFTNYWMHWVKKRPGQGLEWIGYINPSSGYTKYNQKFKDKATLTADKSSNTAYMQLSSLTYEDSAVYYCTREGGSISDWYFDVWGTGTTVTVSS
VL: DIVMTQAAPSLPVTPGESVSISCRSSKSLLHSNGNTYLYWFLQRPGQSPQLLIYRMSNLASGVPDRFSGSGSGTAFTLRISRVEAEDVGVYYCMQHLEYPYTFGGGTKLEIK
B2: anti-TMEM106B antibody TM-45 (antibody, V domains shown)
VH: B1 VH
VL: B1 VL
B3: anti-TMEM106B antibody TM-37 (antibody, V domains shown)
VH: B1 VH with N31S, K39Q, I51V, Y60N, A68V, N77S, T97A
VL: B1 VL with L11V, L38S
B4: anti-TMEM106B antibody TM-35 (antibody, V domains shown)
VH: QVQLQQSGPELVRPGTSVKISCKAPGYTFTRHWMQWVRQRPGQGLEWIGEILPGSNNIYYNEKVKGKATLTVDTSSSTSYMQLSSLTSEDSAVYFCARSLYDYDGVFAYWGQGTLVTVSA
VL: DVLMTQIPLSLPVSLGDQASISCRSSQSIVHRNGNTYLEWYLQKPGQSPKLLIYKVSNRFSGVPDRFSGSGSGTDFTLKISRVEAEDLGVYYCFQGSHVPYTFGGGTKLEIK
B5: anti-TMEM106B antibody TM-48 (antibody, V domains shown)
VH: QVQLQQSGPELVKPGASVKLSCKASGYTFTSYDINWVKQRPGQGLEWIGWIYPRDGNTQYIEKLKGKATLTVDTSSSTAYMELHSLTSEDSAVYFCARWIFYAMDYWGQGTSVTVSS
VL: B4 VL with I7T, D17N, R32G, V99L
B6: anti-TMEM106B antibody TM-9 (antibody, V domains shown)
VH: EVQLVESGGDLVKPGGSLKLSCVASGFTFSGYGMSWVRQTPDKRLEWVATISSGSFYIYYPDSVKGRLTVSRDNAKNTLYLQMSSLKSEDTAIYYCARQNFYYGCEDYWGQGTTLTVSS
VL: DIVMTQAAFSNPVTLGTSASISCRSSKSLLHSNGITYLYWYLQKPGQSPQLLIYQMSNLASGVPNRFSSSGSGTDFTLRISRVEAEDVGVYYCAQNLELPWTFGGGTKLEIK
B7: anti-TMEM106B antibody TM-7 (antibody, V domains shown)
VH: EVQLQQSGPVLVKPGPPVKISCKASGFTFTDYYIHWVKLSHGKSLEWIGLVYPYNGDTDYNQKFKGKATLTVDTSSSTAYMELNSLTSEDSAVYYCARTYYANSPDYWGQGTTVTVSS
VL: DIVMTQSPSSLSVSAGEKVTMSCKSSQSLLNSGNQRNYLAWYQQKPGQPPKLLIYGASTRESGVPDRFTGSGSGTDFTLTISNVQAEDLAVYYCQNDHSYPLTFGAGTKLELK
B8: anti-TMEM106B antibody TM-39 (antibody, V domains shown)
VH: HVQRQQSGTELAKPGASVKLSCKTSGYTFTDYWMHWIKQRPGQGLEWIGFINPSSGYTKYNQNFKDKATLTADKSSSTAYMQLSSLTYEDSAVFYCAREAGSISDWYFDVWGTGTTVTVSS
VL: B1 VL with L11I, S28T, H31N, S48P, E98D, K108Q
B9: anti-TMEM106B antibody TM-46 (antibody, V domains shown)
VH: QVQLQQSGADLVKPGASVKISCKASGYAFSSFWMNWVKLRPGKGLEWIGQIYPGDGDTDYNGKFKDKATLTADTSSNTAYMQLSRLTSEDSAVYFCARGDGFSYFDYWGQGTILTVSS
VL: QIVLTQSPVIMSASPGERVTMTCCASSRVNYMHWYQQKSGSYPKRWIYDTSKLASGVPGRFSGSGSGTSYSLTISSMEAEDAATYYCQQWSSNPPTFGGGTKLEIK
B10: anti-TMEM106B antibody TM-34 (antibody, V domains shown)
VH: EVQLVESGGGLVKPGGSLKLSCAASGFSFSDSGMDWVRQAPEKGLEWFAYISSGSSTTHYADTVKGRFIISRDNAKNTLFLQMTSLRSEDTAMYYCVRRDGNYWYFDVWGTGTTVTVSS
VL: QIVLSQSPVILSASPGEKVTMTCRATSSVTYMHWYQLKPGSSPKPWIYATSNLASGVPARFSGSGSGTSYSLTISRVEAEDAATYYCQQWSSNPYTFGGGTKLEIK
B11: anti-TMEM106B antibody TM-51 (antibody, V domains shown)
VH: QVQLQQPGAELVKPGASVKLSCKASGYTFTTYWIDWVKQRPGQGLEWIGNMFPGSSRTNYNEKFKSRATLTVDTSSSTAYMQLSSLTSDDSAVYYCARKEGLWTYGYDGGAWFAYWGQGTLVTVSA
VL: DIVMSQSPSSLAVSVGEKVTMSCKSSQSLRNSRTRKNYLAWYQQKPGQSPKLLIYWASTRESGVPDRFTGSGSGTDFTLTISSVQAEDLAIYYCKQSYNLLTFGAGTKLELK
notes: mouse IgG from hybridoma
B12: anti-TMEM106B antibody TM-47 (antibody, V domains shown)
VH: QVQLKESGPVLVAPSQSLSITCTVSGFSLTNYGVHWVRQPPGKGLEWLGVIWAGGNTNYNSALMSRLSISKDNSKSQVFLKMNSLQTDDTAMYYCAKEAKLLRSYAMDYWGQGTSVTVSS
VL: B7 VL with S12T, S14T, R36K, A40T, G56W, N83S, H98Y, L112I
notes: mouse IgG from hybridoma

Each binder was assayed against T1, human TMEM106B (human, UniProt Q9NUM4 2-274) (assay: FACS A549).
T1 construct: Full-length, on transiently transfected HEK293 cells, or natively expressed on HeLa, U251 and A549 cells; also called huTMEM106B; huTMEM

Binder	MFI
B1	947
B2	819
B3	1040
B4	982
B5	677
B6	1990
B7	647

The binders below were run against T1, human TMEM106B (assay: FACS HeLa;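 note: flow cytometry of cells incubated with hybridoma supernatant or purified antibody at 10 µg/ml for 1 h on ice, propidium iodide–positive dead cells gated out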).
Description: (§1) All cells were cultured in either T75 or T150 flasks. […] The enzyme was quenched by addition of fresh media, and the cells were then distributed into 96-well plates for FACS analysis.
(§2) FACS analysis was performed as follows. Each cell type was aliquoted in 96-well round bottom plates (2x10^5 cells per well), washed once with FACS buffer (PBS + 2% FBS + 1 mM EDTA), and incubated with 50 µL of hybridoma supernatant or purified antibody (10 µg/ml in FACS buffer) on ice for 1 hour. […] Following this secondary incubation, the cells were again washed 2x with ice-cold FACS buffer and resuspended in a final volume of 50 µL of FACS buffer + 0.25 µl/well propidium iodide (Fisher Scientific # BDB556463). Analysis was performed on a FACSCanto system (BD Biosciences) or iQue (Intellicyt), with sort gates drawn to exclude dead (i.e., propidium iodide positive) cells.
(§3) Data is presented as mean fluorescence intensity (MFI).

Binder	MFI
B1	215
B2	191
B3	254
B4	241
B5	219
B6	2540
B7	1070

The binders below were run against T1, human TMEM106B (assay: FACS U251;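 note: flow cytometry of cells exposed to antibody (purified at 10 µg/mL, or hybridoma supernatant) for 1 h on ice, with propidium iodide-positive dead cells gated out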).

Binder	MFI
B1	326
B2	517
B3	408
B4	370
B5	346
B6	1540
B7	442

The binders below were run against T2, mouse TMEM106B (mouse, UniProt Q80X71 2-275) (assay: FACS Neuro2a;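 note: flow cytometry of cells stained with antibody or hybridoma supernatant (purified antibody at 10 µg/ml) for 1 h on ice, propidium iodide–positive dead cells gated out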).
T2 construct: on transiently transfected HEK293 cells, or natively expressed on mouse Neuro2a cells; also called moTMEM106B; murine TMEM106B
Description: as §1, §2, §3

Binder	MFI
B1	237
B2	187
B3	208
B4	181
B5	292
B6	2710
B7	1200

Each binder was assayed against T3, GST (Pierce) (UniProt P08515 1-218 = GST, limits assumed) (assay: ELISA, coated GST;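 note: ELISA on plates coated with GST alone at 1-10 µg/ml, antibodies applied at 100-1000x dilution, bound antibody detected by peroxidase substrate colour after acid stop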).
T3 construct: control for the GST part of the fusion protein; also called GST protein; Glutathione-S-transferase
Description: Briefly, 96-well polystyrene plates were coated with 1-10 µg/ml of recombinant GST-TMEM106B-truncated protein or GST (Pierce) in PBS either at 370 Cfor 1-4 hours or overnight at 4 °C. Coated plates were then blocked with 5% BSA for 1-hour, washed 3×150 µL in TBST (Tris-buffered saline + 0.1% Tween20), and then the antibodies were added at various dilutions (100-1000x) in PBS. After 1-hour incubation (room temperature, with shaking), the plates were washed 3x150 µL in TBST. […] After a final set of washes (3×150µL in TBST), 100 µL of peroxidase substrate was added for 1 minute; the reaction was then quenched with 2N sulfuric acid (100 µL).

Binder	binding result
B6	no binding
B7	no binding

The binders below were run against T1, human TMEM106B (assay: FACS A549, 1 ug/ml).

Binder	MFI
B1	1780
B2	1860
B8	3610
B3	2980
B4	3270
B5	1580
B6	4880
B7	883

The binders below were run against T1, human TMEM106B (assay: FACS A549, 10 ug/ml).
Description: (§4) Purified anti-TMEM106B antibodies were evaluated for their binding affinity to various TMEM106B-expressing cell lines including HEK293 transiently transfected with human/cyno/mouse TMEM106B, as well as HeLa cells and A549 cells. Antibodies tested for this experiment were mouse IgGs purified from hybridoma supernatant. Affinity binding to cells was determined as follows. Briefly, 1x10^5 cells were aliquoted per well in 96-well round bottom plates and incubated with 50 µL of purified anti-TMEM106B antibody at various concentrations (10x dilutions starting at 10 µg/ml) in FACS buffer (PBS + 2% FBS + 1 mM EDTA). […] Sorting was performed on a iQue (Intellicyt), with sort gates drawn to exclude dead (propidium iodide +) cells. Binding data was analyzed using median fluorescent intensity (MFI) and graphed in Prism. Values presented are MFI.

Binder	MFI
B1	3300
B2	3240
B8	5330
B3	4210
B4	4200
B5	2450
B6	7090
B7	1810

The binders below were run against T3, GST (Pierce) (assay: array SPR, Ab immobilised).

Binder	binding result
B9	no binding
B10	no binding
B11	no binding
B1	no binding
B2	no binding
B8	no binding
B3	no binding
B4	no binding
B5	no binding
B12	no binding

Each binder was assayed against T1, human TMEM106B (assay: FACS, HEK293 transfectants;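 for fold over negative controls: hybridoma supernatants incubated 30 min on ice with human TMEM106B-expressing HEK293 cells, binding read as anti-mouse-APC median fluorescence on live cells, relative to secondary-antibody-only wells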;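 for fold-change over parental HEK293: flow cytometry binding of hybridoma supernatants to HEK293 cells transiently expressing human, cyno or mouse TMEM106B, read as anti-mouse-APC median fluorescence, live cells only, 30 min on ice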).
Description: Initial screening of the anti-TMEM106B hybridomas was performed as follows.
For screening of the hybridoma cell culture supernatants, humanTMEM106B-transfected HEK293 cells were aliquoted in 96-well round bottom plates (2x10^5 cells per well) and incubated with 50 µL of hybridoma cell culture supernatant on ice for 30 minutes. […] Cell sorting was performed on a FACS Canto system (BD Biosciences) or iQue (Intellicyt), with sort gates drawn to exclude dead (i.e., propidium iodide-positive) cells. Median fluorescence intensity (MFI) of anti-mouse-APC MFI on TMEM106B+ HEK293 cells was calculated for each clone, and those displaying a signal of at least 2-fold over background compared to a secondary-antibody only well were taken forward for further analysis and characterization.

Binder	fold over negative controls
B8	> 2 fold
B4	> 2 fold
B5	> 2 fold
B6	> 2 fold
B7	> 2 fold

Each binder was assayed against T4, GST-fusion human TMEM106B truncated (human) (assay: array SPR, Ab immobilised;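 note: antibodies amine-coupled on an MX-96 chip, antigen flowed at 500 nM top concentration in 5-fold serial dilutions, GST alone run as nonspecific-binding control, duplicate measurements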).
T4 construct: also called GST-TMEM106B-truncated protein; GST-TMEM106B (truncated)
Description: Binding kinetic characterization of the purified antibodies was performed by Carterra using a proprietary array SPR instrument (MX-96) as follows. Briefly, antibodies were prepared by diluting to 5 µg/ml in 10 mM Acetate, pH 4.5 (Carterra), at 150 µL/well and then made an additional dilution at 1:10 from there by titrating 11 µl into 100 µL. […] The chip was activated with 18 mM EDC (Sigma Bioxtra) and 4.5 mM S-NHS (Thermo Fisher) diluted in 100 mM MES, pH 5.5, for 7 minutes, and then antibodies were coupled for 10 minutes at 45 µL/minute. After coupling, the chip was returned to the MX-96 and quenched for 7 minutes using 1 M Ethanolamine pH 8.5 (Carterra).
Printed antibodies were profiled for their ability to bind GST-TMEM106B (truncated) protein (described above). Briefly, GST-TMEM106B (truncated) antigen was diluted to 18 µg/ml (500 nM of 36 kDa fusion protein) by mixing 2.7 µL of 2.0 mg/ml antigen into 298 µL Running buffer (HBS-EP+, Teknova with 1 mg/ml BSA, Sigma), and titrated 50 µl into 200 µl for 5-fold serial dilutions. In addition, binding to GST (Pierce) was assayed under the same conditions to determine the extent of any nonspecific binding of the anti-TMEM106B antibodies to GST portion of the TMEM106B-GST fusion protein. Duplicate measurements for each anti-TMEM106B antibody were taken to ensure reproducibility.

Binder	Kd	koff	kon
B1	33 nM and 24 nM	–	–
B2	19 nM and 18 nM	–	–
B8	4.1 nM and 2.2 nM	5.8e-05 s⁻¹ and 3e-05 s⁻¹	14000 M⁻¹ s⁻¹
B3	2.6 nM and 6.3 nM	–	–
B4	6 nM and 6.8 nM	9e-05 s⁻¹ and 0.00011 s⁻¹	15000 M⁻¹ s⁻¹ and 16000 M⁻¹ s⁻¹
B5	3.1 nM and 3.9 nM	5.3e-05 s⁻¹ and 5.6e-05 s⁻¹	17000 M⁻¹ s⁻¹ and 14000 M⁻¹ s⁻¹
B6	4.2 nM and 5.2 nM	8.3e-05 s⁻¹ and 8.4e-05 s⁻¹	20000 M⁻¹ s⁻¹ and 16000 M⁻¹ s⁻¹
B7	–	–	9900 M⁻¹ s⁻¹ and 10000 M⁻¹ s⁻¹

The binders below were run against T1, human TMEM106B (assay: FACS HEK+huTMEM, 10 ug/ml;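 note: purified mouse IgG antibodies at 10 µg/ml bound to HEK293 cells transiently expressing human TMEM106B, measured by flow cytometry as median fluorescence intensity of propidium iodide negative live cells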).

Binder	MFI
B1	60100
B2	58100
B8	51900
B3	50500
B4	48700
B5	38200
B6	56400
B7	40800

Target: T1, human TMEM106B
Experiment: FACS, HEK293 transfectants;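 note: flow cytometry binding of hybridoma supernatants to HEK293 cells transiently expressing human, cyno or mouse TMEM106B, read as anti-mouse-APC median fluorescence, live cells only, 30 min on ice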
Remark: another data set of the same source
Description: (§5) For screening of the hybridoma cell culture supernatants, humanTMEM106B-transfected HEK293 cells were aliquoted in 96-well round bottom plates (2x10^5 cells per well) and incubated with 50 µL of hybridoma cell culture supernatant on ice for 30 minutes. […] Median fluorescence intensity (MFI) of anti-mouse-APC MFI on TMEM106B+ HEK293 cells was calculated for each clone, and those displaying a signal of at least 2-fold over background compared to a secondary-antibody only well were taken forward for further analysis and characterization.

Binder	fold-change over parental HEK293
B4	11.5 fold
B5	16.7 fold
B6	10.7 fold
B7	17.5 fold

These binders were tested against T5, cynomolgus (cyno) TMEM106B (cynomolgus, UniProt Q9NUM4 2-274 (human entry)) (assay: FACS, HEK293 transfectants;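 note: flow cytometry binding of hybridoma supernatants to HEK293 cells transiently expressing human, cyno or mouse TMEM106B, read as anti-mouse-APC median fluorescence, live cells only, 30 min on ice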).
T5 construct: on transiently transfected HEK293 cells
Description: as §5

Binder	fold-change over parental HEK293
B4	14.7 fold
B5	16.4 fold
B6	22.3 fold
B7	47.5 fold

What follows are binders tested against T2, mouse TMEM106B (assay: FACS, HEK293 transfectants;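 note: flow cytometry binding of hybridoma supernatants to HEK293 cells transiently expressing human, cyno or mouse TMEM106B, read as anti-mouse-APC median fluorescence, live cells only, 30 min on ice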).
Description: as §5

Binder	fold-change over parental HEK293
B4	1.04 fold
B5	28.5 fold
B6	8.52 fold
B7	15.5 fold

What follows are binders tested against T1, human TMEM106B (assay: FACS HEK+huTMEM, 0.1 ug/ml;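 note: flow cytometry binding of purified mouse IgG antibodies to HEK293 cells transiently expressing TMEM106B, read as median fluorescence intensity with propidium iodide positive dead cells gated out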).

Binder	MFI
B1	16700
B2	21300
B8	19200
B3	29400
B4	22600
B5	21600
B6	28300
B7	9870

What follows are binders tested against T1, human TMEM106B (assay: FACS HEK+huTMEM, 1.0 ug/ml).

Binder	MFI
B1	58100
B2	57600
B8	55600
B3	58700
B4	55400
B5	39900
B6	62100
B7	40000

What follows are binders tested against T1, human TMEM106B (assay: FACS HEK+huTMEM, 0.01 ug/ml).
Description: as §4

Binder	MFI
B1	2070
B2	2500
B8	3850
B3	3920
B4	4080
B5	4050
B6	3940
B7	1670
